From the nanobody polyreactivity screen of Harvey et al. (2022)

Assay: yeast display, Sf9 membrane polyspecificity reagent, FACS + sequencing; frameworks hold sequencing errors
Summary of the method: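 Polyreactivity labels are assigned by the sorting gate from which each nanobody was recovered. The gates were low and high (top ~1%), set on anti-HA fluorescence for expression and streptavidin fluorescence for reagent binding. Before sorting, galactose-induced (36–48 hours) yeast display cells were stained for 1 hour at 4 °C with 10% biotinylated, detergent-solubilized Sf9 membrane reagent.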

Sequence	polyreactivity (PSR sort gate)
QVQLVESGGGLVQAGGSLRLSCAASGSTFLDNTMGWYRQAPGKEREFVAAISSSVYSTYYADSVKGRFSISRDNAKNTVYLQMNSLKPEDTAVYFCAADRGFYPSLWDYDYWGQGTQVTVSS	low polyreactivity
QVQLVESGGGLVQAGGSLRLSCAASGRIFVVYAMGWYRQAPGKESELVATISGGSTNYADSVKGRFTISRDNAKNTVYLQMNSVKPDDTAVYYCGMEYWGQGTQVTVSS	low polyreactivity
QVQLVESGGGLVQAGGSLRLSSAAYGIIIGYYAMGWYRQPPGKERELVAAISWSGGSTYYADSVKGRFTISRDNAKNTVYLQMNSLKPEDTAVYYCAAVVRRKSGNDTWRYNYWGQGTQVTVSS	high polyreactivity
QVQLVESGGGLVQAGGSLRLSCAASGRTFPYNAMGWYRQAPGKERELVAAITWSGGSTYYADSVKGRFTISRDNAKNTVYLQMNSLKPEDTAVYYCNKDFPVFEYDYWGQGTQVTVSS	low polyreactivity
QVQLVESGGGLVQAGGSLRLSCAASGSTFTYYAMGWYRQPPGKERELVAAIDTSGTSTYYADSVKGRFTISRDNAKNTVYLQINSLKPEDTAVYYCNAYPTTYYQQYDYWGQGTQVTVSS	low polyreactivity
QVQLVESGGGLVQAGGSLRLSCAASGRIFPANVMGWYRQAPGKETELVAAITRGDSTNYADSVKGRFTISRDNAKNTVYLQMTSLKPEDTAVYYCAAYGRYLLWDYDYWGQGTQVTVSS	low polyreactivity
QVQLVESGGGLVQAGGSLRLSCAASGSIFNYYTMGWYRQAPGKERELVARITSGDSTYYADSVKGRFTISRDNAKNTVYLQMNSLKPEDTAVYYCNAGLYRRRSTYYRQAYNYWGQGTQVTVSS	high polyreactivity
QVQLVESGGGLVQAGGSLRISCAASGFIFGPNAMGWYRQAPGKERELVAAISYSGGRTYYADSVKGRFTISRDNAKNTVYLQMNILKPEDTAVYYCAQPGRYWGQGTQVTVSS	high polyreactivity
QVQLVESGGGLVQAGGSLRLSCAASGRTFDYYAMGWYRPAPGKERELVAAIRTSGGSTNYADSVKGRFTISRDNAQNTVYLLMNSLKPEDTAVYYCAARDRPGAYYYGGQGTQVTVSS	high polyreactivity
QVQLVESGGGLVQAGGSLRLSCAASGFTIVYYAMGWYRQAPGKERELVAAISATGGRTYYADSVKGRFTISRDNAKNTVYLQMNSLKPEDTAVYYCAVGLSGASSGMGYWGQGTQVTVSS	high polyreactivity
QVQLVESGGGLVQAGGSLRLSCAASGLIFYYYAMGWYRQAPGKERELVADIDRGGDTYYADSVKGRFTISRDNAKNTVYLQMNSLKPEDTAVYYGAAVDFYGYVPEFGYWGQGTQVTVSS	low polyreactivity
QVQLVESGGGLVQAGGSLRLSCAASGIIFRLNAMGWYRQAPGKERELVAAIRRRGGSTYYADSVKGRFTISRDKAKNTVYLQMNSLKPEDTAVYYCAKDPHGSDFGYWGQGTQVTVSS	low polyreactivity
QVQLVESGGGLVQAGGSLRLSCAASGRIFITNAMGGYRQAPGKERELVASITVSGDSTYYADSVKGRFTISRDNAKNTVYLQMNSLKPEDTAVYYCAADYYALDKVLGYNYWGQGTQVTVSS	low polyreactivity
QVQLQESGGRLVQAGGSLRLSCAATGTIFTERFMGWYRQAPGKERELVAVISPGTSTNYADSVKGRFTISRDNAKNTVYLQMNSLKPEDTAVYYCAADWSTGNTLPYWGQGTQVTVSS	high polyreactivity
QVQLQESGGRLVQAGGSLRLSCAASGNIFPTVSMGWYRQAPGKDREFVVTIDPGSNTYYADSAKGRFTISRDNAQNTVYLQMNSPKPEDTAVYYCAVVFADWATYGYWGQGTQVTVSS	high polyreactivity
QVQLQESGGLVQAGGLRLSCAASGYVSYQEAMGWYRQAPGKEREIVATISFGANTNYADSVKGRFTISRDNAKNTVYLQMNSLKPEDTAVYYCAAESLFDVYYGYWGQGTQVTVSS	low polyreactivity
QVQLEESGVGLVQAGGSLRLSCAASGSIFYYNAMGSYRQPHGKERDLVAAISWGDGITYYADSVKGRFTISRDNGKNSVYLPMNSLKPEDTAVYYWAVDYYYLPYEYWGKGTQVTVSS	high polyreactivity
QVQLQESGGGLVQAGGSLRLSCAASGSISGPHVMGWYRQAPGKEREFVAAINVGANTYYADNVKGRFTISRDNAKNTVYLQMNSLKPEDTAVYYCAAEYGIYETGHYGIYDYWGQGTQVTVSS	low polyreactivity
QVQLVESGGGLVQAGGSLRLSCAASGSIFFWYTMGWYRQAPGKERELVATISWSDGTTYYADSVKGRFTISRDKAKNTVYLQMNSLIPEDTAVYYCAAESYPSEVSSYVSEYDYWGQGTQVTVSS	low polyreactivity
QVRLVESGGGLVQAGGSLRLSCAASGRTLFVYDMGWYRQAPGKERELVAAISTGDDTNYADSVKGRFTISRDNAKNTVYLQMNSLKPEDTAVYYCNALYYTYPYWGYPSDYNLDYWGQGTQVTVSS	low polyreactivity
QVQLVESGGGLVQAGGSLRLSCAASGFTFVINDMGWYRQAPGKERELVADITSGGDTYYADSVKGRFTISRDNAKNTVYLQMNSLTPEDTAVYYCAADIYPDWIYLLYGYWGHGTQVTVSS	low polyreactivity
QVQLVESGGGLVQAGGSLRLSCAASGRTFSFYAMGWYRQAPGKERELVAGIDWDDGSTSYADSVKGRFTISRDNAKNTVYLQMNSLKPEDTAVYYCAADIGYDVYNDYDYWGQGTQVTVSS	low polyreactivity

Sequence	polyreactivity (PSR sort gate)
QFQLVESGGGLVQAGGSLRLSCAASGLIFVGNPMGWYRQAPGKERELVAAISSRGGRTYYADSVKGRFTISRDNAKNTVYLQMNSLKPEDTAVYYCIAANSQWGFEYWGQGTQVTVSS	high polyreactivity
QVQLVESGGGLVQAGGSLRLSCAASGRIFVPYTMGWYRQAPGKERELVAAISRSGGSTYYADSVKGRFTISRDNAKNTVYLQMNSLKPEDTAVYYCAARATNVYSKMDYWGQGTQVTVSS	high polyreactivity
QVQLVESGGGLVQAGGSLRLSCAASGRIFYYNAMGWYRQSPGKEREFVAAISSGGGSTYYADSVKGRFTISRDNAKNTVYLQMNSLKPEDTAVYYCAAKRQFYRGPAQALSGYGYWGQGTQVTVSS	high polyreactivity
QVQLVESGGGLVQAGGSLRLSCAASGSTFSGYAMGWSRQAPGKERELVASITSSGGSTYYADSVKGRFTISRDNAKNTVYLQMNSLKPEDTAVYYCAAAKSAMWGQGTQVTVSS	low polyreactivity
QVQLVESGRGLVQAGGSLRLSCAASGLTFTPYAMGWYRQAPGKERELVAAITSGGRTYYADSVKGRFTSSRDNAKNTVYLQMNSLKPEDTAVYYCNADPEYSWWYYGLDYWGQGTQVTVSW	high polyreactivity
QVQLLESGGGLVQAGGSLRLTCAASGRTFYRNAMGWYRPAPGKERELVAAISSGGSTTYADSVKGRFTISRDNAKNTVYLQMNSLKPEDTAVYYCAARSHAGSVSPRLKEYDYWGQGTQVTVSS	low polyreactivity
QVHLVESGGGLVQAGGSLRLSCAASGSTFYRYAMGWYRQAPGKEREFVAAISTRGGSTHYADSVKGRFTISRDNAKNTVYLQMNSLKPEDTAVSYCNARGYYSVPSNTGIRYYRFDYWGQGTQVTVSS	low polyreactivity
QVQLVETGGGLVQAGGSLRLSCAASGRTFYYNGRGWYRQAPGKERELVAAITSGGTTSYADSVKGRFTISRDNAKNTVYLQMNSLKPEETAVYYCNADYWAVNYDYWGQGTQVTVSS	low polyreactivity
QVQLVESGGGLVQAGGSLRLSCAASGFTFYKNAMGWYRQAPGKERELVAAISRSGGSTYYADSVKGRFTISRDNAKNTVYLKMNSLKPEDTAVYYWAKGYCNFYRSDYWGQGTHVTVSS	high polyreactivity
QVQLVESGGGLVQAGVSLRLICAASGLTFQYNAMGWYRQAPGKEREMVASINSGGSTDYADSVKGRFTISRDNAKNTVYLQMNSLKPEDTAVYYCATSGYWYSASYGYEYWGQGTQVTVSS	low polyreactivity
QVQLVESGGGLVQAGGSLRLSCAASGFILQYNAMGWYRQAPGKEREFVATITGSGGSTYYADSVKGRFTISRDNAKNTVYIQMYSLKPEDTAFYYCNAETYIDLSGKFPVDYDYWGQGTQVTVSS	low polyreactivity
QVQLVESGGGLVQAGGSLRLSCAASGSTFRTYAMGWYRQAPGKERELVAAISRSGGSTYYADSVKGRFTISRDNAKNTFYLQMNSLKPEDTAVYYCAARGGRGWTPSDYWGQGTQVTVSS	high polyreactivity
QGQHVESGGGLVQAGGRLRLSCAASGSTFGDNAMGWSRQAPGKERELVAAISSGSGGSTYYADSVKGRFTISRDNAKNTVYLQMNSLKPEDTAVYYCADVGPYGYYYGHYGYWGQGTQVTVSS	low polyreactivity
QVQLVESGGGLVQAGGSLRLSCAASGSNFVIYAMGWYRQAPGKERELVAAIRFSTGSTYYADSVKVRFTNSRDYAKNTVYLQMNSLKPEDTAVYYCAAATWQWPWYDYWGQGTQVTVSS	high polyreactivity
QVQLVESGGGLVQAGGSLRLSCAASGSTFGEYAMGWYRQAPGKERELVAVITWRDDSTYYADSVKGRFTISRDNAKNTVYLQMNSLKPEDTAVYYCNADIYQGNAGYIEVGTFGEYDYWGQGTQVTVSS	low polyreactivity
QLQLVESGGGLVQAGGSLRLSCAASGSTQGVYAMGSYRQAPGKERELVAAISRSGGRTYYADSVKGRFTISRDNAKNTVYLQMNSLKPEDTAVYYCAADYYLWVYWYDYWGQGTQVTVSS	high polyreactivity
QVQLVESGGGLVQAGGSLRLSCAASGRIFSRYAMGWYRQAPGKERELVAVISRSGADTYYADSVKGRFTISRDNAKNTVYLQMNSLKPEDTAVFYCNAYSARRPHPMCYDSWGQGTQVTVSS	high polyreactivity
QVQLVESGRGLVQAGGSLRLSCAASGFIFLKFAKGWYRQAPGKERELVARITSTGGSTYYADSVKGRFTISRDNAKNTVYLQMNSLKPEDTAVYYCARDTVPSSDPWYYAWGGFEFDYWGQGTQVTVSS	low polyreactivity
QVQLVESGGGLVQAGGSLRLSCAASGFTISQYAMGWYRQAPGKERELVAVISINGGSTYYADSVKGRFTISRDNAKNTVYLEKNSLKPEDTAVYYCAADDTDSEDYGYDYWGQGTQVTVSS	low polyreactivity
QVQLVESGGGLVQAGGTLRLSCAASGRTFGFYAMGWYRQAPGKERELVAVITRGGYTSYADSVKGRFTISRDNAKNTVYLQMNSLKPEDTAVYYCAAGWHYWDHRYDYWGQGTQVTVSS	high polyreactivity
QGQLVESGGGLVQAGGSLRLSCAASGRTFVRNAMGWSSQGPGKEREWVAAISSIGDSTYYAYSLKGRFTISRDNAKNTVYLQLNTLKPEDTAVYYCAAECVTSYYNYYHWGQGTQVTVSS	low polyreactivity
